3 molecules from PMC11648230, “Structure–function analysis of tRNA t^6A-catalysis, assembly, and thermostability of Aquifex aeolicus TsaD2B2 tetramer in complex with TsaE” (The Journal of Biological Chemistry, 2024) can be followed below.

What is called Km is the concentration of substrate that gives half-maximal velocity. By Vmax is commonly meant the top rate of the reaction or transport when substrate is in excess. As usually defined, the kcat is the maximal rate divided by the concentration of active sites. As a reminder, the kcat/Km is the second-order rate constant that governs catalysis at low substrate concentration.

Series [1] concerns the target Aquifex aeolicus TsaD2B2 tetramer (Aquifex aeolicus) (UniProt O66986).
In series [2] the target is Aquifex aeolicus TsaD2B^mut2 tetramer (Aquifex aeolicus | Thermotoga maritima) (UniProt O66986).
Sequence of Aquifex aeolicus TsaD2B^mut2 tetramer (Aquifex aeolicus | Thermotoga maritima) (O66986 whole entry, looked up): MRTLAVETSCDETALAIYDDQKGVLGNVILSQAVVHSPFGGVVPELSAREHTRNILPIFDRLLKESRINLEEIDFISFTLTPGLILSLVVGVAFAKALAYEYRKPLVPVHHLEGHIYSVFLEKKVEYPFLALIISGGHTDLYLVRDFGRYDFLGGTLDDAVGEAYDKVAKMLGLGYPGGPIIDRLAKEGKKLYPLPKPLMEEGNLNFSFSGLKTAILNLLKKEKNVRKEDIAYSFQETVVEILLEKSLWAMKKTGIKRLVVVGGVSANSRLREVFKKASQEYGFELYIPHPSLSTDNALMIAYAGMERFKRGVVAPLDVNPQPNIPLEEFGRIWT
The target of series [3] is Aquifex aeolicus TsaD^Δ34–382B2 tetramer (Aquifex aeolicus) (UniProt O66986).
Sequence of Aquifex aeolicus TsaD^Δ34–382B2 tetramer (Aquifex aeolicus) (O66986 other isoform, or with tags, fused parts or gaps mutant, chain 1 of 2): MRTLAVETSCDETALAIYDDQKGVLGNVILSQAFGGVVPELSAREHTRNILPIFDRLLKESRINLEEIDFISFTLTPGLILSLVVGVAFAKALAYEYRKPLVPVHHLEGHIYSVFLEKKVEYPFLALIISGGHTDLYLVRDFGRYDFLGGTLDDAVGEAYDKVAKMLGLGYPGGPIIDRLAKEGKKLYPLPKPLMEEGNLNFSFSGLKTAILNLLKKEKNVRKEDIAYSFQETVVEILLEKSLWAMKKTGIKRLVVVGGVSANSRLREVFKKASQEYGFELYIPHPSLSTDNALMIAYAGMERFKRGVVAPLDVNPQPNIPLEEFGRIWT
Sequence of Aquifex aeolicus TsaD^Δ34–382B2 tetramer (Aquifex aeolicus) (partner O66494, as listed by the source mutant, chain 2 of 2): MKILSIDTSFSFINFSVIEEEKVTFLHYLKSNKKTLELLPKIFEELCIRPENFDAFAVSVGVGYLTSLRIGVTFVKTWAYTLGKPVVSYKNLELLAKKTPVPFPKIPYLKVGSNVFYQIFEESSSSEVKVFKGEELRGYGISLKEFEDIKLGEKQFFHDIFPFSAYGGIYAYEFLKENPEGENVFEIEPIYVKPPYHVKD
Substrate in series [4]: Nc1ncnc2c1ncn2[C@@H]1O[C@H](COP(=O)(O)OP(=O)(O)OP(=O)(O)O)[C@@H](O)[C@H]1O
Put plainly: NADH-coupled ATPase assay. It counts as biochemical, Aquifex aeolicus. Conditions: 10 uM TsaE with 5 uM TsaD2B2, no tRNA, 10 mM MgCl2, 100 mM KCl, pH 7.5, 37 °C. The source says: NADH-coupled ATPase assay on A. aeolicus TsaD2B2E2

Substrate in series [5]: Nc1ncnc2c1ncn2[C@@H]1O[C@H](COP(=O)(O)OP(=O)(O)OP(=O)(O)O)[C@@H](O)[C@H]1O
As to the kind of experiment: NADH-coupled ATPase assay. Conditions: 10 uM TsaE alone, 10 mM MgCl2, 100 mM KCl, pH 7.5, 37 °C. It is filed as biochemical, Aquifex aeolicus. The source says: NADH-coupled ATPase assay on A. aeolicus TsaE (AaTsaE)

Sequence of Aquifex aeolicus TsaD2B2 tetramer (Aquifex aeolicus) (O66986 whole entry, chain 1 of 2): as the sequence (O66986 whole entry, looked up) above
Sequence of Aquifex aeolicus TsaD2B2 tetramer (Aquifex aeolicus) (partner O66494, as listed by the source, chain 2 of 2): as the sequence (partner O66494, as listed by the source mutant, chain 2 of 2) above

B1: Aquifex aeolicus TsaE (enzyme)
chain: MELLKEVILESEEDTYKLAEEIAQLLKGSEVICLRGTLGAGKTTFVKALAKALKVKNPSAVRSPTFTLVNEYETDKGKLIHIDLYRVPDFDYSEFIGEGILAVEWEERDKPCDIILEIEILDENKRKVRIYRK
For B1, in series [1], the Vmax of ATP to ADP hydrolysis by 10 μM TsaE with 5 μM TsaD2B2 (NADH-coupled assay, 37 °C); TsaE alone 0.0374 is 0.0982 µM/s and the kcat of ATP to ADP hydrolysis by 10 μM TsaE with 5 μM TsaD2B2 (NADH-coupled assay, 37 °C); TsaE alone 0.007 came out at 0.02 s⁻¹. In series [2], the Vmax of ATP to ADP hydrolysis by 10 μM TsaE with 5 μM TsaD2B^mut2 (NADH-coupled assay, 37 °C) was determined as 0.125 µM/s and the kcat of ATP to ADP hydrolysis by 10 μM TsaE with 5 μM TsaD2B^mut2 (NADH-coupled assay, 37 °C) was 0.025 s⁻¹. Further, in series [3], the Vmax of ATP to ADP hydrolysis by 10 μM TsaE with 5 μM TsaD^Δ34–382B2 (NADH-coupled assay, 37 °C) is 0.219 µM/s and the kcat of ATP to ADP hydrolysis by 10 μM TsaE with 5 μM TsaD^Δ34–382B2 (NADH-coupled assay, 37 °C) was 0.044 s⁻¹.

B2: A. aeolicus TsaD2B2E2 (Aquifex aeolicus VF5) (protein)
chain: MELLKEVILESEEDTYKLAEEIAQLLKGSEVICLRGTLGAGKTTFVKALAKALKVKNPSAVRSPTFTLVNEYETDKGKLIHIDLYRVPDFDYSEFIGEGILAVEWEERDKPCDIILEIEILDENKRKVRIYRK
notes: recombinant from E. coli; with tRNA N6-adenosine threonylcarbamoyltransferase; tRNA threonylcarbamoyladenosine biosynthesis protein TsaB
With B2, in series [4], the Michaelis constant (Km) was 228 ± 47.9 µM, the Vmax is 5.89 µM/min, the turnover number (kcat) worked out at 0.02 ± 0.0012 s⁻¹ and the specificity constant (kcat/Km) is 86 M⁻¹ s⁻¹.

B3: A. aeolicus TsaE (AaTsaE) (Aquifex aeolicus VF5) (protein)
chain: MELLKEVILESEEDTYKLAEEIAQLLKGSEVICLRGTLGAGKTTFVKALAKALKVKNPSAVRSPTFTLVNEYETDKGKLIHIDLYRVPDFDYSEFIGEGILAVEWEERDKPCDIILEIEILDENKRKVRIYRK
notes: recombinant from E. coli (plasmid pET24d-BC11_Eop); monomer
Consider B3, for which, in series [5], the Michaelis-Menten constant (Km) was 96 ± 44.9 µM, the Vmax came to 2.24 µM/min, the kcat amounted to 0.007 ± 0.0007 s⁻¹ and the catalytic efficiency (kcat/Km) was determined as 78 M⁻¹ s⁻¹.
